Assay results taken from the DeepSol protein solubility set.

Assay: soluble on expression in E. coli; label from the status in PepcDB or PDB records

| Sequence | soluble on expression in E. coli |
| --- | --- |
| GPGYQDPKGRLYGTIGIQKRFYVSIDKIPEHVINAFVATEDRNFWHHFGIDPVAIVRAAIVNYRAGRIVQGGSTITQQLAKNLFLTRERTLERKIKEALLAIKIERTFDKKKIMELYLNQIYLGSGAYGVEAAAQVYFGKHVWELSLDEAALLAALPKAPAKYNPFYHPERALQRRNLVLKRMLEEGYITPEQYEEAVNK | soluble |
| MGSDKIHHHHHHMTENQTAHVRALILDATPLITQSYTHYQNYAQSFYTTPTVFQEIKDAQARKNLEIWQSLGTLKLVHPSENSIAKVSTFAKLTGDYSVLSANDLHILALTYELEIKLNNGDWRLRKKPGDALDASKADVGTDGKQKLTEDNKKEEDSESVPKKKNKRRGGKKQKAKREAREAREAENANLELESKAEEHVEEAGSKEQICNDENIKESSDLNEVFEDADDDGDWITPENLTEAIIKDSGEDTTGSLGVEASEEDRHVALNRPENQVALATGDFAVQNVALQMNLNLMNFMSGLKIKRIRNYMLRCHACFKIFPLPKDGKPKHFCASCGGQGTLLRCAVSVDSRTGNVTPHLKSNFQWNNRGNRYSVASPLSKNSQKRYGKKGHVHSKPQENVILREDQKEYEKVIKQEEWTRRHNEKILNNWIGGGSADNYISPFAITGLKQHNVRIGKGRYVNSSKRRS | not soluble |
| MAHQLLIGKGMITLNLKRIFLALTLLPLFAVAADDCALSDPTLTVQAYTVNPQTERVKMYWQKANGEAWGTLHALLADINSQGQVQMAMNGGIYDESYAPLGLYIENGQQKVALNLASGEGNFFIRPGGVFYVAGDKVGIVRLDAFKTSKEIQFAVQSGPMLMENGVINPRIHPNVASSKIRNGVGINKHGNAVFLLSQQATNFYDFACYAKAKLNVEQLLYLDGTISHMYMKGGAIPWQRYPFVTMISVERKGLEHHHHHH | not soluble |
| MGSDKIHHHHHHMSNQLENAKNLYLRGIRDGEIKEVHENYMGASYTQHSTGVPDEKEGFAAFFEDFFKRNPKREINIVRAIEDGNFVFVHVHQKLNDGEAEWVTADIFRSDENGRIVEHWDVIDAYPKTIDQTDPIYADFELTDLDKTEDNKKIVRRFLVDVFQNGEIDKFDDYVAANLIQHNQEIAQGGAAYKDYLVDKAVNYDFVFKVMGQGDYVVAYSKVWIAGQDYAHFDIYRLKDGKIVEHWDNKEVMPDKKDLTNLGKF | not soluble |
| MTIALELQQLKKTYPGGVQALRGIDLQVEAGDFYALLGPNGAGKSTTIGIISSLVNKTSGRVSVFGYDLEKDVVNAKRQLGLVPQEFNFNPFETVQQIVVNQAGYYGVERKEAYIRSEKYLKQLDLWGKRNERARMLSGGMKRRLMIARALMHEPKLLILDEPTAGVDIELRRSMWGFLKDLNDKGTTIILTTHYLEEAEMLCRNIGIIQHGELVENTSMKALLAKLKSETFILDLAPKSPLPKLDGYQYRLVDTATLEVEVLREQGINSVFTQLSEQGIQVLSMRNKANRLEELFVSLVNEKQGDRA | not soluble |
| MGSDKIHHHHHHMEEEMLKCKRLFVSDMDGTFYLGNTLLPGSLDFAMAVHRLGARLVFLTNNSSRTPEEYIRKLEKMGVDRKLFQVYTSGEATISFLKRDFAKKKAFLLSTPSVREMFEKGGVMLDDFDPEVLVLAFDTSITYEKIRRAALLIRQGIPYVASHPDINCPTEEGPIPDVGSLISLFETSTGRRPDHIIGKPDPAILKMVMEDFDCSQEETVVIGDRLYTDIECGLKAEVDTFLVLSGETTRDMIPDRHSYKVVENVGSLAKKIRDHDTV | not soluble |
| KGNTFLWLDDILYCERVDGLVFAYTKNKVYQIFHSLRDLEASYYRLGYVRCSKSMIVNIYKIHYFNSEPYGRIRATMENKEEIIISRKYANRIRTILQ | not soluble |
| VNVVQLASAPLHRIVAYTNESCALALYRDQDATLVFAKQVESANQLRYQLDLYRPVSVLWGASGHAVLAHLPPERVRTLLKKEPLSPTGLAALPARELNRDLKQIREQGYSVSTRGEKIEGAAGISTPIFGTGGHVIGCFSLFIPRIRYPEHRETELAQLLVREAGALSDVLAGRQAAPA | not soluble |
| MRKNILIFSLIAFSLTIHCSEIRVQRSLEESITKDYDQDGVYSSYEKALRRTQESVYVTLPEKRGYWYTMLDRIKAEEKELIPDEKVRMRKR | not soluble |
| SASERIIEKTPENSKFHKHQQKNYPLMSILKFHCRLLRCVSRCFTGITISYPATKHGYTKFEKLEDPLTGYTNMKRTIILDLDETLVHATTHLPGVKHDFMVMVKMEREIMPIFVVKRPGVTEFLERLGENYKVVVFTAGLEEYASQVLDKLDKNGVISQRLYRDSCTEVNGKYVKDLSLVVGKDLRSALIVDDNPSSYSLQPENGVPIKAFVDDLKDQELLNLVEFLESCYAYEDMRDAVTDLLAN | soluble |
| MSLKRQLGKDVVQAARERIHILFDEFEHIYVSFSGGKDSGVLLHLVIEEARKRNRLPVDVLIVDLEAQYQHTIHFVERMVNKKEVNAFWVCLPLSLRNSVSQFQPKWICWDPDKKEDWIRALPLHASVINEEEYFSFYSFGMEFETFVSAFGEWYSEKKQCPCACLVAIRADESLNRYKTIKNQRKKRLKQYGWTTKASDVFYKAYLIYDWHVTDIWIANGRFNWDYNHVYDLMHKAGLSLAQQRLCQPFGDDQRKGLWLYQILEPQTWQKLVVRVEGCNFGARYSKKQGHILGYYKFDLPEGYTYRSYSKYLLNSMPPHLADHYRKRLFKFLNWWRKNGKEQGILSIPDFADKKLEAKKKVPSWRRICKVLIKNDYWCRGLSFGQSKKLTEHYIDLYEGYFRKEGHHHHHH | soluble |
| MSGALFLIPAPLGDETVAWLPEGERAKVVHITHFVVEAEKTARKHLKALGVTTPIRELSMSTLNEHTKETDVAALLAPLQAGHDVGLISEAGCPAVADPGAQLVALAHQRDIRVEPLIGPSSILLALMASGANGQCFAFHGYLPVDAAEKSKLVKELEQRSRKHNETQLFIETPYRNNALLAQLRETLAPSTRLAVACDLTLPTQTIVSHRVQDWPQNPPDLHKRPAIFVIHAALEHHHHHH | soluble |
| MGSDKIHHHHHHMIAAIDIGTESARLMFKSNGEWKVLKKSYRIFFPSPEAAEQDPNEIFSAVFDLLKQVPNEDEVLYVGMSSVFHSIIGLDENLNPVTPLLNWADRRSFREKEELEKKYGVRFFYEKTACPLHPMYWPSKILWMKKNSNAKKFCSIKAYIVNKMTREFVEELSLASGTGMMNIHSLEWDGEILEITGVRKEDLPEIKSPYTQLRVKDEIAKELGFKKVYLVLGGGDGVMTNVGVNVMDPDSATVTIGTSGAFRVVMDRPVIDREGISTWCYLIDEENYVLGGAINNGGIVLMWLRDIMKFKDYNDIIEEAKESPAGANGLVFLPFLNGERAPHWRERYRGVLVGLTSSHRRSDIARAALEGICFRIKDIHNAVKRVGSVDPNRIVATGGFTSSPYWVQLLSDVLGKDIIVTNVENPSAFGAYVMALKSLGEDVEGFIEKEVRVERVFHPDSERNAVYERLYNDYKFLYEKLVDYYYKE | not soluble |
| MFEKVIKLWRDTFPKSEHKLMSIEYVAAIEEFNEYFPGYAAMNDSNYSKLQHFFRSLHPIGCIKPFRFHYSSAFALENSLDDYLLKNAQFKRDGLAGEWAIHIFADHNDHIIEKYRMYKKKRLEKLERTFEERKKKAER | not soluble |
| MGSDKIHHHHHHMSSSSVLAESCNGSQKKRVFVVGATGYIGKFVVRELVSRGYEVISFARPRSGVNASTTEDETRRQLQGSEVRFGDVSNLESLLRDGIRGEHFDAVVSCLASRNGGIKDSWDIDYQATRNSLDAGMKAGINHFVLLSAICVQKPMLEFQRAKLKFEKELRESGVTYSIVRPTAFFKSIAGQIEKVKNGKPYVMFGDGKLTACKPISEGDLARFITDCLEDPEKQNKILPIGGPGEPVTNLDQALMLFELLGRKPKLKKVPIQIFDVIIPLLTLISKFLPSFAEKAEFARIGKYYCSESMLVWDPVKKRYDADATPSYGTETLRDFYKRVLKEGLAGQELGAHAMF | not soluble |
| MSGGGVIRGPAGNNDCRIYVGNLPPDIRTKDIEDVFYKYGAIRDIDLKNRRGGPPFAFVEFEDPRDAEDAVYGRDGYDYDGYRLRVEFPRSGRGTG | soluble |
| MGSDKIHHHHHHMFQYRFKWSFSSDPNLSDRLFELIEVIFPGLNDLVERGRKLGASWESASTPFIRFHDDVAITHVGVLEIPMVIMGQRVTVGGIHGVATRPEFRRKGYYREVIEEVLEYCDQIYETLILTTPEPEYHLPFGFRVVEEYIFHLKCSSKGNVNGWRILDFSDNQDLALLHRLLETRAPVSHVVGVVNEKPVFFVNEGSRDLYYAEDLDLIACIKIENNRLHIFDLVATKICSLKEILGRTSEVIEEVKIYFSPDLLDVDNVQAFPYKLEDTVLMIRGQFAAVGEKFMLPRSARC | not soluble |
| MAHHHHHHMEHLSVTKNSQMNNLAAYNNQEANYSLAAPNQEEYSENDLFYTFYDKFNEIFLFIQNLKENKNDLEDEVDDNLIKTLHNLCLEFLNYIKQINDFGHMNLSKNDQDLIIESYEKFVRQCKQYNDKPQVKQLENEISNLLDLLFNNTSGRHNSWRSGKKRKKREKEKKKLISPP | soluble |
| MAGQSKIIVGGVIGGTSEQEPKGFLDLPVELYQKIIGKLDLHERFRVRKSNQTLRQFIDQMDPAISQIRVSISDSDKCDDWVSRSVRVMAEMLSSSIYPDVKNISTCGLPSSQIAQILPSFQAGKLENLDLYYCGKPTAEDMETIVNSDQWKNAKNISGFRGLSNIRIKDLLHFSLVCVDYATISVETAIEIKDILLTSSNIKHAYFTSKSVLDVNVIRVFDPKAAKVHRKRNLSNLVRNTDFADFTFSSNQKVLRFKKKN | not soluble |
| MAQRVQLTATVSENQLGQRLDQALAEMFPDYSRSRIKEWILDQRVLVNGKVCDKPKEKVLGGEQVAINAEIEEEARFEPQDIPLDIVYEDEDIIIINKPRDLVVHPGAGNPDGTVLNALLHYYPPIADVPRAGIVHRLDKDTTGLMVVAKTVPAQTRLVESLQRREITREYEAVAIGHMTAGGTVDEPISRHPTKRTHMAVHPMGKPAVTHYRIMEHFRVHTRLRLRLETGRTHQIRVHMAHITHPLVGDPVYGGRPRPPKGASEAFISTLRKFDRQALHATMLRLYHPISGIEMEWHAPIPQDMVELIEVMRADFEEHKDEVDWL | soluble |
| MSLNKQDKKWRVLVVDDDADVLTNTVYTLMDLKVLGRELDITTLGSATAAIELLERERDFAVILLDVVMEKPHAGLSLVTMIRHDFNMQMSRIILRTGNPGYAPERDITLKLEIDDYILKQTAVRDRIITAVIVAIRAYDQLQRLARLKDAMQQIICCSNQLLTTDEIDQFANVCMQYVAPIFGKNAGGGLAYAGMTVNQGIVPLTVMSATSEHESLIEPLNGEGHHHHHH | not soluble |
| MQKDYQKLIVYLCDFLEKEVQKRGFKKVVYGLSGGLDSAVVGVLCQKVFKENAHALLMPSSVSMPENKTDALNLCEKFSIPYTEYSIAPYDAIFSSHFKDASLTRKGNFCARLRMAFLYDYSLKSDSLVIGTSNKSERMLGYGTLFGDLACAINPIGELFKTEVYELARRLNIPKKILNKPPSADLFVGQSDEKDLGYPYSVIDPLLKDIEALFQTKPIDTETLAQLGYDEILVKNITSRIQKNAFKLELPAIAKRFNPELEHHHHHH | soluble |
| MSERHGVQEATLRNWANLGYITSCRMGNQLFLDDESLTAYLEAHKRLGLQADYLAKIVEEKKLERDFIISRYDDLLYVLRTQKTCKPLYEIIIRELSQLIVHPGARDIFYSISMGESIEKVAGRHRITYDRALQIYNSHLRGLKVRKNVLATYRKHIIDARFQSLADKSKNINLNQEERVLQLSVGKVADTRLTNVLYKEEIRTVGQLLELVSGKGWRWLLKMEGVGRISYDRLLSNLQLAGVVDESLEQILSGRSDR | not soluble |
